Tests used:
Δ42PD1 [1] = molecular target: T1, Δ42PD1 (human); assay: flow cytometry on 293T-Δ42PD1 cells, antibody 10 ng/ml, second anti-human Fc antibody
T1 construct: whole, on cells
Excerpt: Human IgG1 isotype was used as a negative control.
To exploit the therapeutic activities of CH101 variants, we made various modifications in the constant regions of the chimeric version or humanized version of CH101, thus resulting a serial of CH101 humanized antibodies, including CH101-huIgG1(N297A), CH101-huIgG1(L/S), CH101-huIgG4, huCH101-IgG1, huCH101-IgG4, CH101-huIgG1 (chimeric CH101). The original CH101 (parental, fully murine) was included as the positive control for these humanized versions. […] All humanized antibodies could recognize Δ42PD1 expressed on the cell surface but with different specificity (FIGS. 3A-3I). The detailed statistical analysis elucidated the activity of versions of humanized antibodies in interacting with Δ42PD1 at different specificity and sensitivity (Table 1). […] Due to the limited expression of chimeric versions of CH101 with Fc engineering, including CH101-huIgG1(N297A), CH101-huIgG1(L/S) and CH101-huIgG4, the amount of these antibody was insufficient for fluorescence labelling.

Δ42PD1 [2] = molecular target: T1, Δ42PD1; assay: flow cytometry on 293T-Δ42PD1 cells, antibody 10 ng/ml; average ± deviation
PD-1-GFP = molecular target: T2, PD-1-GFP (UniProt Q15116 25-288); assay: flow cytometry on RPMI8866 B cells transfected with PD-1-GFP
T2 construct: whole, on cells; Expressed from a PCDH plasmid in RPMI8866 B cells by electroporation; also called PD-1 expressed on human B cells; not shown: GFP
T2 sequence (Q15116 25-288): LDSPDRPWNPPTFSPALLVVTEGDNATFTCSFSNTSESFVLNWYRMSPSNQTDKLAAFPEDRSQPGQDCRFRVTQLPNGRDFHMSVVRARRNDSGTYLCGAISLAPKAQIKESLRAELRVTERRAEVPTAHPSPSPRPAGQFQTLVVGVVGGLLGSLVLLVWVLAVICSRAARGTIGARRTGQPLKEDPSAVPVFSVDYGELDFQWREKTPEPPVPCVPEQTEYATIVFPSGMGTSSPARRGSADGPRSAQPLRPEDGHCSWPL
Method: To test the specificity of anti-Δ42PD1 antibody CH34 as compared with the anti-PD1 antibody (EH12.2H7), RPMI8866 B cells are transfected with a plasmid PCDH expressing Δ42PD-1-GFP, PD-1-GFP or GFP along by Neon electroporation system. Untransfected RPMI8866 B cells are included as controls. Two days after the transfection, the transfection efficiency is determined by flow cytometry analysis on GFP (upper panel). The specificity of anti-Δ42PD1 antibody CH34 and anti-PD1 antibody EH12.2H7 is measured by analysis on PD-1 and Δ42PD1 expression (lower panel).

PD1 = molecular target: T3, PD1 (human, UniProt Q15116 25-288); assay: flow cytometry on 293T cells transfected with a PCDH plasmid expressing PD-1
T3 construct: whole, on cells; also called CD279
T3 sequence (Q15116 25-288): as above
Method: Untransfected cells are included as controls. Two days after the transfection, the specificity of anti-Δ42PD1 antibody CH34 and anti-PD1 antibody EH12.2H7 is measured by analysis on PD-1 and Δ42PD1 expression.

Binder | 293T-Δ42PD1 (%) (Δ42PD1 [1]) | 293T-Δ42PD1 (%) (Δ42PD1 [2]) | further results
CH101-huIgG1(N297A) (antibody, Detected with a second anti-human Fc antibody) heavy: not shown light: DVVMTQTPLNLSVTFGQPVSISCTSSQSLLDRDGETFMNWLFQRPGQSPKRLIYLVSKLDFGVPDRFTGSGSGTDFTLKISRVEAEDLGIYYCWQGTHFPLTFGGGTKLEIKRTVAAPSVFIFPPSDEQLKSGTASVVCLLNNFYPREAKVQWKVDNALQSGNSQESVTEQDSKDSTYSLSSTLTLSKADYEKHKVYACEVTHQGLSSPVTKSFNRGEC | 68.3 |  | 
CH101-huIgG1 (antibody, also called chimeric CH101; CH101-IgG1) heavy: not shown light: DVVMTQTPLNLSVTFGQPVSISCTSSQSLLDRDGETFMNWLFQRPGQSPKRLIYLVSKLDFGVPDRFTGSGSGTDFTLKISRVEAEDLGIYYCWQGTHFPLTFGGGTKLEIKRTVAAPSVFIFPPSDEQLKSGTASVVCLLNNFYPREAKVQWKVDNALQSGNSQESVTEQDSKDSTYSLSSTLTLSKADYEKHKVYACEVTHQGLSSPVTKSFNRGEC |  | 70.1 | 
CH101-huIgG1(L/S) (antibody, Detected with a second anti-human Fc antibody; not shown: human IgG1 constant region with a modification printed only as '(L/S)') heavy: EVQLEESGPDLVKPSQSLSLTCTVTGYSITSGFAWHWLRQFPGNRLEWMGYIHYSGSTNYNPSLKSRISITRDTSKNQFFLQLNSVTTEDTATFYCARSDFWGQGTFVTVSS light: DVVMTQTPLNLSVTFGQPVSISCTSSQSLLDRDGETFMNWLFQRPGQSPKRLIYLVSKLDFGVPDRFTGSGSGTDFTLKISRVEAEDLGIYYCWQGTHFPLTFGGGTKLEIKRTVAAPSVFIFPPSDEQLKSGTASVVCLLNNFYPREAKVQWKVDNALQSGNSQESVTEQDSKDSTYSLSSTLTLSKADYEKHKVYACEVTHQGLSSPVTKSFNRGEC | 65.7 |  | 
CH101-huIgG4 (antibody, Chimeric CH101 on human IgG4; Detected with a second anti-human Fc antibody; also called CH101-IgG4) heavy: not shown light: DVVMTQTPLNLSVTFGQPVSISCTSSQSLLDRDGETFMNWLFQRPGQSPKRLIYLVSKLDFGVPDRFTGSGSGTDFTLKISRVEAEDLGIYYCWQGTHFPLTFGGGTKLEIKRTVAAPSVFIFPPSDEQLKSGTASVVCLLNNFYPREAKVQWKVDNALQSGNSQESVTEQDSKDSTYSLSSTLTLSKADYEKHKVYACEVTHQGLSSPVTKSFNRGEC | 62.8 |  | 
anti-Δ42PD1 antibody CH34 (antibody, mouse IgG2b, kappa, V domains shown, Murine monoclonal antibody (msIgG2b isotype control used beside it); both are entered as this one molecule; also called murine CH34; mouse CH34 mAb) VH: EVKLVESGGGLVQPGGSRKLSCAASGFTFSDYGMAWVRQAPGKGPEWVAFISSLAYTIYYADTVTGRFTISRENAKNTLYLEMSSLRSEDTAMYYCARGGAGFAYWGQGTLVTVSA VL: DIQMTQSSSYLSVSLGGRVTITCKASDHINNWLAWYQQKPGNAPRLLISGATSLETGVPSRFSGSGSGKDYTLSITSLQTEDVATYYCQQYWSTPWTFGGGTKLEIKR |  |  | binding result (PD-1-GFP): no binding; binding result (PD1): no binding
murine CH101 (antibody, V domains shown, Hybridoma-derived, fully murine monoclonal antibody; a mouse IgG1 control was used beside it in vivo; also called parental murine CH101; original CH101 (parental, fully murine)) VH: EVQLEESGPDLVKPSQSLSLTCTVTGYSITSGFAWHWLRQFPGNRLEWMGYIHYSGSTNYNPSLKSRISITRDTSKNQFFLQLNSVTTEDTATFYCARSDFWGQGTFVTVSS VL: DVVMTQTPLNLSVTFGQPVSISCTSSQSLLDRDGETFMNWLFQRPGQSPKRLIYLVSKLDFGVPDRFTGSGSGTDFTLKISRVEAEDLGIYYCWQGTHFPLTFGGGTKLEIK |  | 59.2 | 
hufrCH101-IgG1 (antibody, 97.0% humanized CH101 (641/661) by CDR grafting, human IgG1; also called huCH101-IgG1; huCH101) heavy: not shown light: DVVMTQSPLSLPVTLGQPASISCTSSQSLLDRDGETFMNWFQQRPGQSPRRLIYLVSKLDFGVPDRFSGSGSGTDFTLKISRVEAEDVGVYYCWQGTHFPLTFGGGTKVEIKRTVAAPSVFIFPPSDEQLKSGTASVVCLLNNFYPREAKVQWKVDNALQSGNSQESVTEQDSKDSTYSLSSTLTLSKADYEKHKVYACEVTHQGLSSPVTKSFNRGEC |  | 45.5 | 
